Columns and labels:
Assay in all cases: cell-based or functional assay
[1] = target: HIV-1 Env of pseudovirus ZM247v1(Rev-) (HIV-1)
[2] = target: HIV-1 Env of pseudovirus Ce1086_B2 (HIV-1)
[3] = target: HIV-1 Env of pseudovirus 6535.3 (HIV-1)
[4] = target: HIV-1 Env of pseudovirus 3365.v2.c2 (HIV-1)
[5] = target: HIV-1 Env of pseudovirus 0260.v5.c36 (HIV-1)
[6] = target: HIV-1 Env of pseudovirus ZM233M.PB6 (HIV-1)
[7] = target: HIV-1 Env of pseudovirus HIV-0013095-2.11 (HIV-1)
[8] = target: HIV-1 Env of pseudovirus TRO.11 (HIV-1)
[9] = target: HIV-1 Env of pseudovirus Q769.d22 (HIV-1)
[10] = target: HIV-1 Env of pseudovirus Ce1172_H1 (HIV-1)
[11] = target: HIV-1 Env of pseudovirus Ce2010_F5 (HIV-1)
[12] = target: HIV-1 Env of pseudovirus CAAN5342.A2 (HIV-1)
[13] = target: HIV-1 Env of pseudovirus Ce1176_A3 (HIV-1)
[14] = target: HIV-1 Env of pseudovirus REJO4541.67 (HIV-1)
[15] = target: HIV-1 Env of pseudovirus HIV-16845-2.22 (HIV-1)
[16] = target: HIV-1 Env of pseudovirus CNE53 (HIV-1)
[17] = target: HIV-1 Env of pseudovirus WEAU_d15_410_787 (HIV-1)
[18] = target: HIV-1 Env of pseudovirus 1054_07_TC4_1499 (HIV-1)
[19] = target: HIV-1 Env of pseudovirus HIV-001428-2.42 (HIV-1)
[20] = target: HIV-1 Env of pseudovirus 6244_13_B5_4576 (HIV-1)
[21] = target: HIV-1 Env of pseudovirus SC05_8C11_2344 (HIV-1)
[22] = target: HIV-1 Env of pseudovirus MS208.A1 (HIV-1)
[23] = target: HIV-1 Env of pseudovirus Q23.17 (HIV-1)
[24] = target: HIV-1 Env of pseudovirus QH0692.42 (HIV-1)
[25] = target: HIV-1 Env of pseudovirus PVO.4 (HIV-1)

For 10-1074 (antibody), the IC50, titer in TZM.bl cells [1] was 0.042 µg/mL, the IC80, titer in TZM.bl cells [1] was 0.186 µg/mL and the IC50, titer in TZM.bl cells [2] was greater than 50 µg/mL. It also gave an IC80, titer in TZM.bl cells [2] greater than 50 µg/mL, an IC50, titer in TZM.bl cells [3] of 0.014 µg/mL and an IC80, titer in TZM.bl cells [3] of 0.026 µg/mL. It also gave an IC50, titer in TZM.bl cells [4] of 0.131 µg/mL, an IC80, titer in TZM.bl cells [4] of 0.45 µg/mL and an IC50, titer in TZM.bl cells [5] of 0.099 µg/mL. The IC80, titer in TZM.bl cells [5] was 0.16 µg/mL, the IC50, titer in TZM.bl cells [6] was 0.06 µg/mL and the IC80, titer in TZM.bl cells [6] was 0.349 µg/mL. It also gave an IC50, titer in TZM.bl cells [7] greater than 50 µg/mL, an IC80, titer in TZM.bl cells [7] greater than 50 µg/mL and an IC50, titer in TZM.bl cells [8] of 0.008 µg/mL. It also gave an IC80, titer in TZM.bl cells [8] of 0.057 µg/mL, an IC50, titer in TZM.bl cells [9] greater than 50 µg/mL and an IC80, titer in TZM.bl cells [9] greater than 50 µg/mL. It also gave an IC50, titer in TZM.bl cells [10] of 0.047 µg/mL, an IC80, titer in TZM.bl cells [10] of 0.166 µg/mL and an IC50, titer in TZM.bl cells [11] greater than 50 µg/mL. The IC80, titer in TZM.bl cells [11] was greater than 50 µg/mL, the IC50, titer in TZM.bl cells [12] was 0.007 µg/mL and the IC80, titer in TZM.bl cells [12] was 0.036 µg/mL. For the same substance, the IC50, titer in TZM.bl cells [13] was 0.019 µg/mL, the IC80, titer in TZM.bl cells [13] was 0.07 µg/mL and the IC50, titer in TZM.bl cells [14] was greater than 50 µg/mL. The IC80, titer in TZM.bl cells [14] was greater than 50 µg/mL, the IC50, titer in TZM.bl cells [15] was 1.17 µg/mL and the IC80, titer in TZM.bl cells [15] was 5.83 µg/mL. The IC50, titer in TZM.bl cells [16] was 0.039 µg/mL, the IC80, titer in TZM.bl cells [16] was 0.141 µg/mL and the IC50, titer in TZM.bl cells [17] was 0.104 µg/mL. For the same substance, the IC80, titer in TZM.bl cells [17] was 0.375 µg/mL, the IC50, titer in TZM.bl cells [18] was 0.129 µg/mL and the IC80, titer in TZM.bl cells [18] was 0.563 µg/mL. The IC50, titer in TZM.bl cells [19] was 0.044 µg/mL, the IC80, titer in TZM.bl cells [19] was 0.261 µg/mL and the IC50, titer in TZM.bl cells [20] was 0.202 µg/mL. It also gave an IC80, titer in TZM.bl cells [20] of 0.922 µg/mL, an IC50, titer in TZM.bl cells [21] of 0.052 µg/mL and an IC80, titer in TZM.bl cells [21] of 0.123 µg/mL. The IC50, titer in TZM.bl cells [22] was greater than 50 µg/mL, the IC80, titer in TZM.bl cells [22] was greater than 50 µg/mL and the IC50, titer in TZM.bl cells [23] was 0.006 µg/mL. It also gave an IC80, titer in TZM.bl cells [23] of 0.021 µg/mL, an IC50, titer in TZM.bl cells [24] of 0.191 µg/mL and an IC80, titer in TZM.bl cells [24] of 0.929 µg/mL. It also gave an IC50, titer in TZM.bl cells [25] of 0.074 µg/mL and an IC80, titer in TZM.bl cells [25] of 0.36 µg/mL.

Work on PG9 (antibody) yielded an IC50, titer in TZM.bl cells [1] of 0.112 µg/mL, an IC80, titer in TZM.bl cells [1] of 0.323 µg/mL and an IC50, titer in TZM.bl cells [2] greater than 50 µg/mL. For the same substance, the IC80, titer in TZM.bl cells [2] was greater than 50 µg/mL, the IC50, titer in TZM.bl cells [3] was 0.176 µg/mL and the IC80, titer in TZM.bl cells [3] was 0.627 µg/mL. The IC50, titer in TZM.bl cells [5] was 1.69 µg/mL, the IC80, titer in TZM.bl cells [5] was 9 µg/mL and the IC50, titer in TZM.bl cells [6] was 0.01 µg/mL. For the same substance, the IC80, titer in TZM.bl cells [6] was 0.026 µg/mL, the IC50, titer in TZM.bl cells [7] was 0.01 µg/mL and the IC80, titer in TZM.bl cells [7] was 0.03 µg/mL. For the same substance, the IC50, titer in TZM.bl cells [8] was 43.2 µg/mL, the IC80, titer in TZM.bl cells [8] was greater than 50 µg/mL and the IC50, titer in TZM.bl cells [9] was 0.025 µg/mL. For the same substance, the IC80, titer in TZM.bl cells [9] was 0.068 µg/mL, the IC50, titer in TZM.bl cells [10] was 0.07 µg/mL and the IC80, titer in TZM.bl cells [10] was 0.206 µg/mL. The IC50, titer in TZM.bl cells [11] was greater than 50 µg/mL, the IC80, titer in TZM.bl cells [11] was greater than 50 µg/mL and the IC50, titer in TZM.bl cells [12] was 4.6 µg/mL. The IC80, titer in TZM.bl cells [12] was 27 µg/mL, the IC50, titer in TZM.bl cells [13] was 0.014 µg/mL and the IC80, titer in TZM.bl cells [13] was 0.044 µg/mL. It also gave an IC50, titer in TZM.bl cells [14] of 0.012 µg/mL, an IC80, titer in TZM.bl cells [14] of 0.163 µg/mL and an IC50, titer in TZM.bl cells [15] of 4.4 µg/mL. It also gave an IC80, titer in TZM.bl cells [15] greater than 50 µg/mL, an IC50, titer in TZM.bl cells [16] of 0.131 µg/mL and an IC80, titer in TZM.bl cells [16] of 0.6 µg/mL. It also gave an IC50, titer in TZM.bl cells [17] of 4.08 µg/mL, an IC80, titer in TZM.bl cells [17] greater than 50 µg/mL and an IC50, titer in TZM.bl cells [18] greater than 50 µg/mL. For the same substance, the IC80, titer in TZM.bl cells [18] was greater than 50 µg/mL, the IC50, titer in TZM.bl cells [19] was 0.101 µg/mL and the IC80, titer in TZM.bl cells [19] was 0.25 µg/mL. For the same substance, the IC50, titer in TZM.bl cells [20] was greater than 50 µg/mL, the IC80, titer in TZM.bl cells [20] was greater than 50 µg/mL and the IC50, titer in TZM.bl cells [21] was 0.892 µg/mL. It also gave an IC80, titer in TZM.bl cells [21] of 4.28 µg/mL, an IC50, titer in TZM.bl cells [22] of 0.005 µg/mL and an IC80, titer in TZM.bl cells [22] of 0.014 µg/mL. For the same substance, the IC50, titer in TZM.bl cells [23] was 0.027 µg/mL, the IC80, titer in TZM.bl cells [23] was 0.082 µg/mL and the IC50, titer in TZM.bl cells [24] was greater than 50 µg/mL. The IC80, titer in TZM.bl cells [24] was greater than 50 µg/mL, the IC50, titer in TZM.bl cells [25] was 10.6 µg/mL and the IC80, titer in TZM.bl cells [25] was greater than 50 µg/mL.

Work on PG16 (antibody) yielded an IC50, titer in TZM.bl cells [1] of 0.016 µg/mL, an IC80, titer in TZM.bl cells [1] of 0.189 µg/mL and an IC50, titer in TZM.bl cells [2] greater than 50 µg/mL. The IC80, titer in TZM.bl cells [2] was greater than 50 µg/mL, the IC50, titer in TZM.bl cells [3] was 0.653 µg/mL and the IC80, titer in TZM.bl cells [3] was greater than 50 µg/mL. The IC50, titer in TZM.bl cells [5] was 1.54 µg/mL, the IC80, titer in TZM.bl cells [5] was 36.1 µg/mL and the IC50, titer in TZM.bl cells [6] was 0.002 µg/mL. For the same substance, the IC80, titer in TZM.bl cells [6] was 0.006 µg/mL, the IC50, titer in TZM.bl cells [7] was 0.002 µg/mL and the IC80, titer in TZM.bl cells [7] was 0.006 µg/mL. For the same substance, the IC50, titer in TZM.bl cells [8] was 1.92 µg/mL, the IC80, titer in TZM.bl cells [8] was 49.6 µg/mL and the IC50, titer in TZM.bl cells [9] was 0.005 µg/mL. The IC80, titer in TZM.bl cells [9] was 0.018 µg/mL, the IC50, titer in TZM.bl cells [10] was 0.007 µg/mL and the IC80, titer in TZM.bl cells [10] was 0.037 µg/mL. It also gave an IC50, titer in TZM.bl cells [11] greater than 50 µg/mL, an IC80, titer in TZM.bl cells [11] greater than 50 µg/mL and an IC50, titer in TZM.bl cells [12] of 1.83 µg/mL. The IC80, titer in TZM.bl cells [12] was 33 µg/mL, the IC50, titer in TZM.bl cells [13] was 0.003 µg/mL and the IC80, titer in TZM.bl cells [13] was 0.011 µg/mL. The IC50, titer in TZM.bl cells [14] was 0.039 µg/mL, the IC80, titer in TZM.bl cells [14] was 13.4 µg/mL and the IC50, titer in TZM.bl cells [15] was 3.13 µg/mL. The IC80, titer in TZM.bl cells [15] was greater than 50 µg/mL, the IC50, titer in TZM.bl cells [16] was greater than 50 µg/mL and the IC80, titer in TZM.bl cells [16] was greater than 50 µg/mL. For the same substance, the IC50, titer in TZM.bl cells [17] was 0.435 µg/mL, the IC80, titer in TZM.bl cells [17] was greater than 50 µg/mL and the IC50, titer in TZM.bl cells [18] was greater than 50 µg/mL. For the same substance, the IC80, titer in TZM.bl cells [18] was greater than 50 µg/mL, the IC50, titer in TZM.bl cells [19] was 0.039 µg/mL and the IC80, titer in TZM.bl cells [19] was 0.25 µg/mL. It also gave an IC50, titer in TZM.bl cells [20] greater than 50 µg/mL, an IC80, titer in TZM.bl cells [20] greater than 50 µg/mL and an IC50, titer in TZM.bl cells [21] of 0.07 µg/mL. It also gave an IC80, titer in TZM.bl cells [21] of 1.62 µg/mL, an IC50, titer in TZM.bl cells [22] of 0.002 µg/mL and an IC80, titer in TZM.bl cells [22] of 0.004 µg/mL. The IC50, titer in TZM.bl cells [23] was 0.008 µg/mL, the IC80, titer in TZM.bl cells [23] was 0.043 µg/mL and the IC50, titer in TZM.bl cells [24] was greater than 50 µg/mL. The IC80, titer in TZM.bl cells [24] was greater than 50 µg/mL, the IC50, titer in TZM.bl cells [25] was 15.3 µg/mL and the IC80, titer in TZM.bl cells [25] was greater than 50 µg/mL.

From patent publication US20230002480A1
